Several values for one entry are separate records, joined by “and”; a condition that tells them apart may be missing. Equal entries are not always repeated.
Tests used:
[1] = molecular target: recombinant human PD-1 extracellular domain (ECD) fusion protein (human, UniProt Q15116); test: ELISA
[2] = molecular target: human PD-1 on 293T cells stably transfected with human PD-1 (human, UniProt Q15116); test: flow cytometry on cells
[3] = molecular target: refolded PD-1 protein (L25-R147) expressed in E. coli (Homo sapiens, UniProt Q15116); test: SPR
Sequence of refolded PD-1 protein (L25-R147) expressed in E. coli (Q15116 25-147): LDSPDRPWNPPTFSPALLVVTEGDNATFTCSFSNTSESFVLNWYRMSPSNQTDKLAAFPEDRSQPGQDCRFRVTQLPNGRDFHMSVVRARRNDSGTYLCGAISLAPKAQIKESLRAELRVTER

Sequence of human PD-1 on 293T cells stably transfected with human PD-1 (Q15116 25-288): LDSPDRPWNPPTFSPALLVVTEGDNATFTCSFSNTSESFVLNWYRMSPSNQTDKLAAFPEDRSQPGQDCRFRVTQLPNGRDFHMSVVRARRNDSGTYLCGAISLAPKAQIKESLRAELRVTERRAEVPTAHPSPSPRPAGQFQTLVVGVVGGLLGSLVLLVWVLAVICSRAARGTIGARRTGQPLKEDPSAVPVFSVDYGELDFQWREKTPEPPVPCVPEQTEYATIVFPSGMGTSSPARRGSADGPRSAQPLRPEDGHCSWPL
Sequence of recombinant human PD-1 extracellular domain (ECD) fusion protein (Q15116 25-170): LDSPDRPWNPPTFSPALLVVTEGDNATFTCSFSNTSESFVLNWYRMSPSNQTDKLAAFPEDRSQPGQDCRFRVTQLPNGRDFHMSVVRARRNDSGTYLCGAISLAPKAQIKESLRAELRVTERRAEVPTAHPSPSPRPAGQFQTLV

- IC50 [1]: 0.8 nM and 1.3 nM
- IC50 [2]: 1.3 nM and 3.7 nM
- Kd [3]: 0.324 nM
B1: toripalimab (antibody, V domains shown)
VH: QGQLVQSGAEVKKPGASVKVSCKASGYTFTDYEMHWVRQAPIHGLEWIGVIESETGGTAYNQKFKGRVTITADKSTSTAYMELSSLRSEDTAVYYCAREGITTVATTYYWYFDVWGQGTTVTVSS
VL: DVVMTQSPLSLPVTLGQPASISCRSSQSIVHSNGNTYLEWYLQKPGQSPQLLIYKVSNRFSGVPDRFSGSGSGTDFTLKISRVEAEDVGVYYCFQGSHVPLTFGQGTKLEIK
